Data on two substances can be found in doi:10.1101/2025.01.24.634724, “Receptor Activity-Modifying Protein 3 enhances GLP-1-mediated Insulin Secretion” (bioRxiv, 2025).

For test [1], the target named is Nluc-GLP-1R co-expressed with FLAG-RAMP3 (UniProt P43220).
The next test has as its target Nluc-GLP-1R (human) (UniProt P43220).

Chain of Nluc-GLP-1R (human) (P43220 24-463): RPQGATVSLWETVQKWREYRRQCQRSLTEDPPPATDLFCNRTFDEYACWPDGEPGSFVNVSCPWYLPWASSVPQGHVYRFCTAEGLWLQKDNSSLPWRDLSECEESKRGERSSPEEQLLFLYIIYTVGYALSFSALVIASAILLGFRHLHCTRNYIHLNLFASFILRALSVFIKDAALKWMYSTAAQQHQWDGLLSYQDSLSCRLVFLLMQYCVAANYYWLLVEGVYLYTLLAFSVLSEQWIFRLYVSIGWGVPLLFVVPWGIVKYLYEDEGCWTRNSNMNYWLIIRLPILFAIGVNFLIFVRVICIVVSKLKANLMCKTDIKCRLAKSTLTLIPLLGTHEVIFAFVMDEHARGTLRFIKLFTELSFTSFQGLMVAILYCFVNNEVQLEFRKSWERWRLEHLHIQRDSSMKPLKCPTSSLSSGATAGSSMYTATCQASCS
Chain of Nluc-GLP-1R co-expressed with FLAG-RAMP3 (P43220 24-463, chain 1 of 2): as the sequence (P43220 24-463) above
Chain of Nluc-GLP-1R co-expressed with FLAG-RAMP3 (O60896 24-148, chain 2 of 2, further chain): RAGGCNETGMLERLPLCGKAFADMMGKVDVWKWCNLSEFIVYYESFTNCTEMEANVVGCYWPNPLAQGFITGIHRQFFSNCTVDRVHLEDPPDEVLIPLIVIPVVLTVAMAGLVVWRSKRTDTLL

On to GLP-1 (7–36amide) (peptide), for which the (Ca2+)i mobilisation in HEK293T cells, pEC50, RAMP3 over-expressed (2:1) in test [1] is 8.1 pEC50. The (Ca2+)i mobilisation in HEK293T cells, pEC50, receptor without RAMP3 with Nluc-GLP-1R (human) was determined as 7.2 pEC50. As to “exendin-4 (from UniProt P26349 48-87) (peptide)”, the (Ca2+)i mobilisation in HEK293T cells, maximal response, receptor without RAMP3 (percent of 10 μM ionomycin) in the test with Nluc-GLP-1R (human) turned out to be 43.6.
